Results as given in US20170298146A1 (MODIQUEST B V, published 2017).
Non-standard residues stand in square brackets, D forms with d. No end group written: not given here. Cit = NC(=O)NCCC[C@H](N)C(=O)O

How the values were obtained:
[1] = molecular target: T1, Histone 2A citrulline-containing peptide 6 (human, also: biotin label); assay: peptide ELISA, 10 ug/well
T1 peptide: VHRLL[Cit]KGNYSE
Protocol: (§1) Biotin and citrulline-containing peptides derived from histone 2A were immobilized on NEUTRAVIDIN®-coated 96-well ELISA plates (0.3 μg/well). CFC-1 and CFC-0 were coated at the same concentration and served as positive and negative controls respectively for specific anti-citrulline reactivity and as coating controls. Non-coated wells were used to test for aspecific binding of the antibodies. […] Detection of bound anti-citrulline antibodies was performed by incubating the wells with rabbit-anti-human-HRP (1:2000) for one hour at RT followed by incubation with TMB substrate. The resulting OD (y-axis) is a measure for antibody binding.
(§2) Ninety-six-well ELISA plates were coated with NEUTRAVIDIN® (0.1 μg/well) by overnight incubation at 4° C. Wells were washed five times with PBS-TWEEN®-20 (PBS-T) and blocked by a one-hour incubation with PBS-T+1% Bovine serum albumin (BSA) at room temperature (RT). After five more washes with PBS-T, wells were incubated for one hour at RT with histone-derived citrulline and biotin-containing peptides (0.3 μg/well). […] Wells were washed five times with PBS-T and incubated with rabbit-anti-human-HRP (1:2000) for one hour at RT followed by five washes with PBS-T and three wash steps with PBS. Wells were incubated for five minutes with TMB substrate before stopping the reaction with 2 M H₂SO₄. Optical density was measured by 450 nm and is a measure for the affinity of the antibodies used.

[2] = molecular target: T2, Histone 2A citrulline-containing peptide 7 (human, also: biotin label); assay: peptide ELISA, 10 ug/well
T2 peptide: GNYSE[Cit]VGAGAP
Protocol: as §1, §2

[3] = molecular target: T3, Histone 2A citrulline-containing peptide 8 (human, also: biotin label); assay: peptide ELISA, 10 ug/well
T3 peptide: AGNAA[Cit]DNKKTR
Protocol: as §1, §2

[4] = molecular target: T4, Histone 2A citrulline-containing peptide 9 (human, also: biotin label); assay: peptide ELISA, 10 ug/well
T4 peptide: DNKKT[Cit]IIPRHL
Protocol: as §1, §2

[5] = molecular target: T5, Histone 2A citrulline-containing peptide 10 (human, also: biotin label); assay: peptide ELISA, 10 ug/well
T5 peptide: TRIIP[Cit]HLQLAI
Protocol: as §1, §2

[6] = molecular target: T6, Histone 2A citrulline-containing peptide 11 (human, also: biotin label); assay: peptide ELISA, 10 ug/well
T6 peptide: LQLAI[Cit]NDEELN
Protocol: as §1, §2

[7] = molecular target: T7, Histone 2A citrulline-containing peptide 12 (human, also: biotin label); assay: peptide ELISA, 10 ug/well
T7 peptide: NKLLG[Cit]VTIAQG
Protocol: as §1, §2

CFC-1 = molecular target: T8, CFC-1; assay: peptide ELISA, 0.08 ug/well
T8 construct: Positive control for anti-citrulline reactivity; also called cfc1 XG
Protocol: as §1, §2

[8] = molecular target: T9, Histone 2A citrulline-containing peptide 1 (human, also: biotin label); assay: peptide ELISA, 0.08 ug/well
T9 construct: also called AAASGXGKQGGK
T9 peptide: AAASG[Cit]GKQGGK
Protocol: as §1, §2

[9] = molecular target: T10, Histone 2A citrulline-containing peptide 2 (human, also: biotin label); assay: peptide ELISA, 0.08 ug/well
T10 peptide: AKAKS[Cit]SSRAGL
Protocol: as §1, §2

[10] = molecular target: T11, Histone 2A citrulline-containing peptide 5 (human, also: biotin label); assay: peptide ELISA, 0.08 ug/well
T11 peptide: VGRVH[Cit]LLRKGN
Protocol: as §1, §2

[11] = molecular target: T1, Histone 2A citrulline-containing …; assay: peptide ELISA, 0.08 ug/well
Protocol: as §1, §2

[12] = molecular target: T4, Histone 2A citrulline-containing …; assay: peptide ELISA, 0.08 ug/well
Protocol: as §1, §2

[13] = molecular target: T6, Histone 2A citrulline-containing …; assay: peptide ELISA, 0.08 ug/well
Protocol: as §1, §2

[14] = molecular target: T7, Histone 2A citrulline-containing …; assay: peptide ELISA, 0.08 ug/well
Protocol: as §1, §2

B1: RhmAb2.102 (antibody, human IgG1, lambda)
heavy: not shown
light: QSVLTQPPSMSAAPGQKVTISCSGSSSNIGNNYVSWYQQVPGTAPKLLIYDDNKRPSGIPGRFSGSKSATSATLGITGLQAGDEADYYCGSWDDNLSVVLFGGGTKLTVLGQPKAAPSVTLFPPSSEELQANKATLVCLISDFYPGAVTVAWKADSSPVKAGVETTTPSKQSNNKYAASSYLSLTPEQWKSHRSYSCQVTHEGSTVEKTVAPTECS
notes: Human IgG1 lambda; also called Rhm2.102
Binder B1 has an OD [1] of 1.41 OD, an OD [2] of 0.08 OD and an OD [3] of 0.082 OD. It also gave an OD [4] of 0.09 OD, an OD [5] of 0.091 OD and an OD [6] of 0.088 OD. For the same binder, the OD [7] was 0.083 OD, the OD (CFC-1) was 2.66 OD and the OD [8] was 2.04 OD. It also gave an OD [9] of 0.086 OD, an OD [10] of 0.066 OD and an OD [11] of 0.123 OD. For the same binder, the OD [12] was 0.06 OD, the OD [13] was 0.064 OD and the OD [14] was 0.06 OD.
